Reference: publication PMC5636791, “Non-canonical reader modules of BAZ1A promote recovery from DNA damage”
Positions count from the first letter of the chain named.

Legend:
[1] = molecular target: T1, BAZ1A-PHD (human, UniProt Q9NRL2 1137-1202); assay: BLI; settings: n=6; value from figure text layer, assigned to the nucleosome panel; BLI: 50 mM Tris pH 7.5, 150 mM NaCl, 1 mM TCEP, 0.5% BSA, 0.01% Tween-20, 23 C; FP: 20 mM Tris pH 7.5, 150 mM NaCl, 1% glycerol, 0.5 mg/mL BSA, 0.05% Triton …
T1 sequence: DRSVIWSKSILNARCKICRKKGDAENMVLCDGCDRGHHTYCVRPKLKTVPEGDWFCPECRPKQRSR

[2] = molecular target: T2, BAZ1A-PHD K1181A/K1183Y (KAKY) (human, UniProt Q9NRL2 1137-1202, K1181A;K1183Y); assay: BLI; BLI: 50 mM Tris pH 7.5, 150 mM NaCl, 1 mM TCEP, 0.5% BSA, 0.01% Tween-20, 23 C; FP: 20 mM Tris pH 7.5, 150 mM NaCl, 1% glycerol, 0.5 mg/mL BSA, 0.05% Triton X-100, RT, 50 nM probe; HDX: PBS pH 7.2, 5 C; settings: protein: recombinant; tags: His6-FLAG N-terminal, removed for BLI; label: 5' biotin; blunt
T2 sequence: T1 sequence with K45A, K47Y

[3] = molecular target: T3, BAZ1B-PHD (UniProt Q9UIG0 1172-1237); assay: as above; settings: protein: recombinant; tags: His6-FLAG N-terminal, removed for BLI; label: 5' biotin; blunt
T3 sequence: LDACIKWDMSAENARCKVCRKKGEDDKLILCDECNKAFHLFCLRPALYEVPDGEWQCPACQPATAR

[4] = molecular target: T4, BAZ1B-PHD A1227K/Y1229K (UniProt Q9UIG0 1172-1237, A1217K;Y1219K); assay: as above; settings: protein: recombinant; tags: His6-FLAG N-terminal, removed for BLI; label: 5' biotin; blunt
T4 sequence: T3 sequence with A46K, Y48K

[5] = molecular target: T5, dAcf1-PHD(1) (Drosophila, UniProt Q9V9T4 1051-1115); assay: as above; settings: protein: recombinant; tags: His6-FLAG N-terminal, removed for BLI; label: 5' biotin; blunt
T5 sequence: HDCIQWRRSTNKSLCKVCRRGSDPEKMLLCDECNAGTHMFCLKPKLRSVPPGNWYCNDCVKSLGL

[6] = molecular target: T1, BAZ1A-PHD; assay: BLI; n=10; BLI: 50 mM Tris pH 7.5, 150 mM NaCl, 1 mM TCEP, 0.5% BSA, 0.01% Tween-20, 23 C; FP: 20 mM Tris pH 7.5, 150 mM NaCl, 1% glycerol, 0.5 mg/mL BSA, 0.05% Triton X-100, RT, 50 nM probe; HDX: PBS pH 7.2, 5 C; settings: protein: recombinant; tags: His6-FLAG N-terminal, removed (TEV/thrombin) for BLI; HDX construct tag-free with extra non-native residues; label: 5' biotin; blunt
[7] = molecular target: T1, BAZ1A-PHD; assay: competition; fluorescence polarization, 5.3 uM protein, 50 nM labeled probe; IC50 not in text; BLI: 50 mM Tris pH 7.5, 150 mM NaCl, 1 mM TCEP, 0.5% BSA, 0.01% Tween-20, 23 C; FP: 20 mM Tris pH 7.5, 150 mM NaCl, 1% glycerol, 0.5 mg/mL BSA, 0.05% Triton X-100, RT, 50 nM probe; HDX: PBS pH 7.2, 5 C; settings: protein: recombinant; tags: His6-FLAG N-terminal, removed (TEV/thrombin) for BLI; HDX construct tag-free with extra non-native residues; blunt
[8] = molecular target: T1, BAZ1A-PHD; assay: BLI; identical results to scrambled sequence; BLI: 50 mM Tris pH 7.5, 150 mM NaCl, 1 mM TCEP, 0.5% BSA, 0.01% Tween-20, 23 C; FP: 20 mM Tris pH 7.5, 150 mM NaCl, 1% glycerol, 0.5 mg/mL BSA, 0.05% Triton X-100, RT, 50 nM probe; HDX: PBS pH 7.2, 5 C; settings: protein: recombinant; tags: His6-FLAG N-terminal, removed (TEV/thrombin) for BLI; HDX construct tag-free with extra non-native residues; label: 5' biotin; blunt
[9] = molecular target: T1, BAZ1A-PHD; assay: HDX-MS; 30 uM protein, 100 uM DNA; C-terminal region protected, incl. K1181 and K1183; BLI: 50 mM Tris pH 7.5, 150 mM NaCl, 1 mM TCEP, 0.5% BSA, 0.01% Tween-20, 23 C; FP: 20 mM Tris pH 7.5, 150 mM NaCl, 1% glycerol, 0.5 mg/mL BSA, 0.05% Triton X-100, RT, 50 nM probe; HDX: PBS pH 7.2, 5 C; settings: protein: recombinant; tags: His6-FLAG N-terminal, removed (TEV/thrombin) for BLI; HDX construct tag-free with extra non-native residues; blunt

human biotinylated mononucleosome (EpiCypher)
Kd [1]: 48 µM

B1: scrambled Widom-601 145 bp duplex (dsDNA)
DNA 1: CTTGCATCGATCCGATTGAACCATCGCTCGGTGACAGCTACGTGACTTAGTGTGCCCCATCGATCCAGTTCGATCACAGGCCACCTGAGTCGAGAGTATCGACACCCAGTGAACGATCGATCCGACTCGATCGCCTCACTGCTAG
DNA 2: CTAGCAGTGAGGCGATCGAGTCGGATCGATCGTTCACTGGGTGTCGATACTCTCGACTCAGGTGGCCTGTGATCGAACTGGATCGATGGGGCACACTAAGTCACGTAGCTGTCACCGAGCGATGGTTCAATCGGATCGATGCAAG
binding result [2]: no binding | binding result [3]: no binding | binding result [4]: no binding | binding result [5]: no binding | Kd [6]: 51 ± 9 µM

B2: Widom-601 145 bp duplex, unlabeled (dsDNA)
DNA 1: ATCAGAATCCCGGTGCCGAGGCCGCTCAATTGGTCGTAGACAGCTCTAGCACCGCTTAAACGCACGTACGCGCTGTCCCCCGCGTTTTAACCGCCAAGGGGATTACTCCCTAGTCTCCAGGCACGTGTCAGATATATACATCGAT
DNA 2: ATCGATGTATATATCTGACACGTGCCTGGAGACTAGGGAGTAATCCCCTTGGCGGTTAAAACGCGGGGGACAGCGCGTACGTGCGTTTAAGCGGTGCTAGAGCTGTCTACGACCAATTGAGCGGCCTCGGCACCGGGATTCTGAT
binding result [7]: binds

B3: Widom-601 145 bp duplex, biotinylated (dsDNA)
DNA 1: B2 DNA 1
DNA 2: B2 DNA 2
binding result [8]: binds

B4: 20 bp HDX duplex (dsDNA)
DNA 1: ACTGACTCTGGACTACTGAG
DNA 2: CTCAGTAGTCCAGAGTCAGT
binding result [9]: binds
